B1: glmS ribozyme (parent)
chain: AUAAAAGCGCCAGAACUACAGAAAUGUAGUUGACGAGGAGGAGGUUUAUCGAAUUUUCGGCGGAUGCCUCCAAA

Conditions in all cases: with glucosamine-6-phosphate
The variants in series [1] derive from B1. Briefly: KM; higher = weaker cofactor use; RNA array. In outline:
(§1)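 Tiles of sequenced MiSeq chips were imaged over ~14 h at 37 °C. On them, barcoded ribozyme variants had been transcribed in situ by E. coli RNA polymerase and were tracked via a hybridised Cy3 probe while glucosamine-6-phosphate (40 μM to 10 mM) in HEPES/KCl/Mg(OAc)2 buffer flowed in. Per-tile medians, normalised to baseline and to non-cleaving reference variants, were fit to one- or two-exponential decays for kobs, and weighted Michaelis–Menten fits gave kcat and KM.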

The variants in series [2] derive from B1. Description: kcat; higher = faster cleavage; RNA array. In outline:
as §1

In series [3] the parent is B1. Briefly: self-cleavage kobs at 40 uM GlcN6P; higher = faster cleavage; RNA array. In outline:
as §1

Series [4] covers variants of B1. Briefly: self-cleavage kobs at 10000 uM GlcN6P; higher = faster cleavage; RNA array. In outline:
as §1

Variants of B1 are the subject of series [5]. Description: self-cleavage kobs at 2500 uM GlcN6P; higher = faster cleavage; RNA array. In outline:
as §1

In series [6] the parent is B1. Briefly: self-cleavage kobs at 640 uM GlcN6P; higher = faster cleavage; RNA array. An outline of the steps: as §1
Variants of B1 are the subject of series [7]. Briefly: self-cleavage kobs at 160 uM GlcN6P; higher = faster cleavage; RNA array. An outline of the steps:
as §1

± gives the standard error. For some of these results: This sample holds only a part of the variants without activity.

One may read the KM as the substrate concentration at which the rate is half of its maximum. In the case of A12C A36U, the Michaelis-Menten constant (KM) with glucosamine-6-phosphate [1] was 56.2 ± 26 µM.

Usually kcat stands for the maximal rate divided by the concentration of active sites. Regarding U57C U65A, the kcat with glucosamine-6-phosphate [2] was 1.91e-05 ± 3.6e-07 s⁻¹. The KM in the series with glucosamine-6-phosphate [1] amounted to 1410 ± 140 µM. Also, the “self-cleavage kobs at 40 uM GlcN6P” value in the series with glucosamine-6-phosphate [3] was under 1e-05 s⁻¹.

Take C8A G29C G35A C67G: the “self-cleavage kobs at 40 uM GlcN6P” value in the series with glucosamine-6-phosphate [3] is under 1e-05 s⁻¹.

As to A12U G60U G66C C68U, the kcat with glucosamine-6-phosphate [2] was under 1e-05 s⁻¹. The “self-cleavage kobs at 10000 uM GlcN6P” value in the series with glucosamine-6-phosphate [4] is under 1e-05 s⁻¹.

Take A14U A33C: in the series with glucosamine-6-phosphate [2], the turnover number (kcat) was found to be 7.66e-05 ± 5.8e-06 s⁻¹. In addition, the Michaelis-Menten constant (KM) with glucosamine-6-phosphate [1] is 1620 ± 560 µM. Further, the “self-cleavage kobs at 2500 uM GlcN6P” value with glucosamine-6-phosphate [5] was found to be 5.28e-05 ± 1.3e-05 s⁻¹. Moreover, in the series with glucosamine-6-phosphate [4], the “self-cleavage kobs at 10000 uM GlcN6P” value is 6.52e-05 ± 7.3e-06 s⁻¹.

As for A48C C67A, the kcat with glucosamine-6-phosphate [2] turned out to be 0.000168 ± 1e-05 s⁻¹. Besides, the KM with glucosamine-6-phosphate [1] is 1800 ± 310 µM. Besides, the “self-cleavage kobs at 640 uM GlcN6P” value with glucosamine-6-phosphate [6] amounted to 4.27e-05 ± 9.9e-06 s⁻¹. The “self-cleavage kobs at 2500 uM GlcN6P” value with glucosamine-6-phosphate [5] worked out at 0.000104 ± 1.4e-05 s⁻¹. For the same variant, in the series with glucosamine-6-phosphate [4], the “self-cleavage kobs at 10000 uM GlcN6P” value stood at 0.00014 ± 1.4e-05 s⁻¹.

On to A14C U46G, for which, in the series with glucosamine-6-phosphate [2], the kcat came out at 0.000823 ± 0.00019 s⁻¹. The Michaelis constant (KM) with glucosamine-6-phosphate [1] was determined as 1630 ± 660 µM. Moreover, the “self-cleavage kobs at 40 uM GlcN6P” value in the series with glucosamine-6-phosphate [3] turned out to be 4.79e-05 ± 1.2e-05 s⁻¹. Further, the “self-cleavage kobs at 160 uM GlcN6P” value with glucosamine-6-phosphate [7] stood at 8.78e-05 ± 1.5e-05 s⁻¹. In addition, the “self-cleavage kobs at 640 uM GlcN6P” value in the series with glucosamine-6-phosphate [6] was found to be 0.000209 ± 2.4e-05 s⁻¹. The “self-cleavage kobs at 2500 uM GlcN6P” value with glucosamine-6-phosphate [5] turned out to be 0.000478 ± 4.8e-05 s⁻¹. Also, in the series with glucosamine-6-phosphate [4], the “self-cleavage kobs at 10000 uM GlcN6P” value was determined as 0.000795 ± 0.0001 s⁻¹.

In the case of U46C U69C, in the series with glucosamine-6-phosphate [2], the catalytic constant (kcat) is 0.00112 ± 0.0002 s⁻¹. In addition, the KM in the series with glucosamine-6-phosphate [1] was determined as 644 ± 250 µM. Moreover, the “self-cleavage kobs at 40 uM GlcN6P” value with glucosamine-6-phosphate [3] was 5.23e-05 ± 2.2e-05 s⁻¹. Moreover, the “self-cleavage kobs at 640 uM GlcN6P” value with glucosamine-6-phosphate [6] is 0.000644 ± 0.00013 s⁻¹. Further, in the series with glucosamine-6-phosphate [5], the “self-cleavage kobs at 2500 uM GlcN6P” value amounted to 0.00117 ± 0.00032 s⁻¹. Also, in the series with glucosamine-6-phosphate [4], the “self-cleavage kobs at 10000 uM GlcN6P” value came out at 0.000936 ± 0.00019 s⁻¹.

Regarding A39G C71U, the KM with glucosamine-6-phosphate [1] was found to be 370 ± 140 µM. The “self-cleavage kobs at 40 uM GlcN6P” value with glucosamine-6-phosphate [3] came out at 0.00144 ± 0.00017 s⁻¹. For the same variant, the “self-cleavage kobs at 160 uM GlcN6P” value with glucosamine-6-phosphate [7] is 0.00396 ± 0.00059 s⁻¹. In addition, in the series with glucosamine-6-phosphate [6], the “self-cleavage kobs at 640 uM GlcN6P” value turned out to be 0.00783 ± 0.0012 s⁻¹. In addition, in the series with glucosamine-6-phosphate [5], the “self-cleavage kobs at 2500 uM GlcN6P” value was 0.0119 ± 0.0027 s⁻¹. Moreover, in the series with glucosamine-6-phosphate [4], the “self-cleavage kobs at 10000 uM GlcN6P” value was found to be 0.0284 ± 0.0069 s⁻¹.

Consider C11U A53C, for which the turnover number (kcat) in the series with glucosamine-6-phosphate [2] amounted to 0.000605 ± 0.00015 s⁻¹. Further, the KM with glucosamine-6-phosphate [1] was found to be 3780 ± 1300 µM. For the same variant, in the series with glucosamine-6-phosphate [7], the “self-cleavage kobs at 160 uM GlcN6P” value worked out at 3.37e-05 ± 1.3e-05 s⁻¹. Moreover, the “self-cleavage kobs at 640 uM GlcN6P” value with glucosamine-6-phosphate [6] worked out at 8.09e-05 ± 1e-05 s⁻¹. In addition, in the series with glucosamine-6-phosphate [5], the “self-cleavage kobs at 2500 uM GlcN6P” value is 0.000307 ± 4.8e-05 s⁻¹. The “self-cleavage kobs at 10000 uM GlcN6P” value with glucosamine-6-phosphate [4] turned out to be 0.000412 ± 6.8e-05 s⁻¹.

A12U C70A: the “self-cleavage kobs at 40 uM GlcN6P” value with glucosamine-6-phosphate [3] stood at 8.79e-05 ± 1.1e-05 s⁻¹. Besides, the “self-cleavage kobs at 160 uM GlcN6P” value with glucosamine-6-phosphate [7] was determined as 0.000177 ± 2.9e-05 s⁻¹. Further, the “self-cleavage kobs at 640 uM GlcN6P” value in the series with glucosamine-6-phosphate [6] worked out at 0.00047 ± 5.2e-05 s⁻¹. The “self-cleavage kobs at 2500 uM GlcN6P” value with glucosamine-6-phosphate [5] was determined as 0.00049 ± 7e-05 s⁻¹. Further, in the series with glucosamine-6-phosphate [4], the “self-cleavage kobs at 10000 uM GlcN6P” value was 0.00179 ± 0.00036 s⁻¹.

On to A6C C11A, for which the “self-cleavage kobs at 40 uM GlcN6P” value with glucosamine-6-phosphate [3] is under 1e-05 s⁻¹. The “self-cleavage kobs at 160 uM GlcN6P” value with glucosamine-6-phosphate [7] is under 1e-05 s⁻¹. Further, the “self-cleavage kobs at 2500 uM GlcN6P” value in the series with glucosamine-6-phosphate [5] was under 1e-05 s⁻¹.

Consider G41U A52C, for which, in the series with glucosamine-6-phosphate [1], the Michaelis constant (KM) came to 3260 ± 480 µM.

For the variant G62A G63U, the KM in the series with glucosamine-6-phosphate [1] worked out at 359 ± 79 µM.

U54G U69A: the kcat with glucosamine-6-phosphate [2] was 0.000109 ± 1.4e-05 s⁻¹. Also, the “self-cleavage kobs at 40 uM GlcN6P” value with glucosamine-6-phosphate [3] was 5.13e-05 ± 1.4e-05 s⁻¹. In addition, the “self-cleavage kobs at 640 uM GlcN6P” value with glucosamine-6-phosphate [6] was determined as 0.000146 ± 3e-05 s⁻¹. Moreover, the “self-cleavage kobs at 2500 uM GlcN6P” value with glucosamine-6-phosphate [5] turned out to be 9.9e-05 ± 1.8e-05 s⁻¹. Also, the “self-cleavage kobs at 10000 uM GlcN6P” value with glucosamine-6-phosphate [4] worked out at 0.000103 ± 1.9e-05 s⁻¹.

Take A15U A33G: the kcat in the series with glucosamine-6-phosphate [2] was under 1e-05 s⁻¹. In addition, the “self-cleavage kobs at 10000 uM GlcN6P” value with glucosamine-6-phosphate [4] is under 1e-05 s⁻¹.

For A15U A33U, the kcat with glucosamine-6-phosphate [2] came to 5.77e-05 ± 6.8e-06 s⁻¹. The “self-cleavage kobs at 2500 uM GlcN6P” value with glucosamine-6-phosphate [5] was determined as 5.26e-05 ± 1e-05 s⁻¹. In the series with glucosamine-6-phosphate [4], the “self-cleavage kobs at 10000 uM GlcN6P” value was 5.13e-05 ± 7.3e-06 s⁻¹.

For the variant G7U C19A, in the series with glucosamine-6-phosphate [3], the “self-cleavage kobs at 40 uM GlcN6P” value is under 1e-05 s⁻¹. Further, the “self-cleavage kobs at 160 uM GlcN6P” value with glucosamine-6-phosphate [7] was under 1e-05 s⁻¹. Moreover, the “self-cleavage kobs at 640 uM GlcN6P” value with glucosamine-6-phosphate [6] is under 1e-05 s⁻¹. Further, in the series with glucosamine-6-phosphate [5], the “self-cleavage kobs at 2500 uM GlcN6P” value was under 1e-05 s⁻¹.

With G43A, in the series with glucosamine-6-phosphate [2], the kcat is 9.3e-05 ± 6.9e-06 s⁻¹. The KM with glucosamine-6-phosphate [1] is 1560 ± 420 µM. In addition, the “self-cleavage kobs at 640 uM GlcN6P” value in the series with glucosamine-6-phosphate [6] was determined as 2.21e-05 ± 1.7e-06 s⁻¹. Also, in the series with glucosamine-6-phosphate [5], the “self-cleavage kobs at 2500 uM GlcN6P” value is 6.37e-05 ± 1.8e-06 s⁻¹. Besides, the “self-cleavage kobs at 10000 uM GlcN6P” value in the series with glucosamine-6-phosphate [4] worked out at 7.88e-05 ± 1.4e-06 s⁻¹.
